In article PMC9618058, “A genetically encoded system for oxygen generation in living cells” (Proceedings of the National Academy of Sciences of the …, 2022):

Substrate: [O-][Cl+]O
Assay: oxygen evolution in digitonin-permeabilised HeLa cells, optical oxygen meter, initial rates
Type: biochemical, Nitrospira defluvii
Conditions: 20 mM HEPES pH 7.2, 125 mM KCl, 2 mM K2HPO4, 1 mM MgCl2, glutamate, malate, 0.01% digitonin, air-saturated, chlorite 10 μM to 1 mM

B1: FLAG-NdCld (Nitrospira defluvii) (protein)
chain: ADREKLLTESGVYGTFATFQMDHDWWDLPGESRVISVAEVKGLVEQWSGKILVESYLLRGLSDHADLMFRVHARTLSDTQQFLSAFMGTRLGRHLTSGGLLHGVSKKPTYVAGFPESMKTELQVNGESGSRPYAIVIPIKKDAEWWALDQEARTALMQEHTQAALPYLKTVKRKLYHSTGLDDVDFITYFETERLEDFHNLVRALQQVKEFRHNRRFGHPTLLGTMSPLDEILEKFAQ
notes: codon-optimised; N-terminal FLAG kept; expressed in HeLa cells; 29 kDa; runs at 248 kDa (dimer of pentamers)
Km: 560 µM
